Broadly, the Kd is the constant that tells how readily two partners part at equilibrium.

Holding throughout (experiment): SPR
For orientation: SPR reads the build-up and loss of mass on a sensor chip optically.

For series [1], the target named is A. fumigatus CCAAT-binding complex (CBC) consisting of HapB(230–299), HapC(40–137) and HapE(47–164) (Aspergillus fumigatus).
The next series deals with T1, Yap1 bZIP (Aspergillus fumigatus, UniProt Q4WMH0 135-234).
T1 sequence: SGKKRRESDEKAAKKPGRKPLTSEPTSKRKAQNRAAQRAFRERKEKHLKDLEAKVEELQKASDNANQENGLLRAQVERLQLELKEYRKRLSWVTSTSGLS

The target in another series is HapX dCBC-BD (Aspergillus fumigatus, UniProt Q4WER3 59-158).

For the molecule “A. fumigatus HapX(24–158) (from UniProt Q4WER3 24-158) (domain or fragment)”, in series [1], the apparent KD with cccA-369 promoter DNA (HapX on preformed CBC:DNA) worked out at 0.4 nM, the apparent KD with cox6 promoter DNA (HapX on preformed CBC:DNA) is 3600 nM and the apparent KD with hemH promoter DNA (HapX on preformed CBC:DNA) amounted to 121 nM.

B1: cyp51A-293 (dsDNA)
DNA 1: GCTGAGCCGAATGAAAGTTGCCTAATTACTAAGGTGT
DNA 2: ACACCTTAGTAATTAGGCAACTTTCATTCGGCTCAGC
In the case of B1, the Kd in the series with Yap1 bZIP stood at 13 nM.

B2: cccA-369 (dsDNA)
DNA 1: AAATCCACCAATCAACGCCTCCGTGATTGTCAGCAAT
DNA 2: ATTGCTGACAATCACGGAGGCGTTGATTGGTGGATTT
Turning to B2, the binding signal with HapX dCBC-BD was determined as 3 fold increase vs HapX. Moreover, the Kd with Yap1 bZIP was 50 nM.

Values taken from publication PMC7144946.
